The record followed here is publication PMC12838881, “Engineering Single-Chain Antibody Fragment (scFv) Variants Targeting A Disintegrin and Metalloproteinase-17 (ADAM-17)” (Biomolecules, 2025).

Some results are limits rather than exact numbers.

In this experiment the target is T1, a disintegrin and metalloproteinase-17 catalytic domain (6xHis-ADAM-17cd) (UniProt P78536).
T1 construct: ADAM-17 (TACE), catalytic domain; also called TACE; tumor necrosis factor-α-converting enzyme; source: bought: Enzo Life Sciences
As to the kind of experiment: flow cytometry on cells; scFv variants or TIMP-3 displayed on yeast; soluble 6xHis-ADAM-17cd or MMP-9cd at 100 nM (legend and results; the methods say 150 nM); PBSA pH 7.4; binding read with anti-6xHis Alexa Fluor 647, expression with anti-c-Myc and Alexa Fluor 488; median binding normalised to expression. Conditions: one partner purified.

T1 sequence (P78536 215-474): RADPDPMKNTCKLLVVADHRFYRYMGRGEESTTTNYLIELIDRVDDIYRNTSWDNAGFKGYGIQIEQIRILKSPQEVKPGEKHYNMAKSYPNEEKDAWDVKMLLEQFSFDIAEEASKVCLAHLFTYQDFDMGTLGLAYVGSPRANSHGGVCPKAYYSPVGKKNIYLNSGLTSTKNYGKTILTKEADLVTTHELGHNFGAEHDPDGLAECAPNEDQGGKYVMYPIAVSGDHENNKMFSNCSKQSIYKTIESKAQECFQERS

B1: SynAb-A9 scFv displayed on yeast (scFv, V domains shown)
VH: QLQLQESGPGLVKPSETLSLTCTVSGGSISSSSYYWGWIRQPPGKGLEWIGSIYYSGSTYYNPSLKSRVTISVDTSKNQFSLKLSSVTAADTAVYYCARPGGYYDMEYLYFDYWGQGTLVTVSS
VL: not shown
notes: light chain variable domain as printed; glycine-rich peptide linker between VL and VH; heavy chain variable domain as printed; CDR-H3 PGGYYDMEYLY; VL-VH orientation; source: yeast surface display, S. cerevisiae RJY100, pCTCON2 vector; not shown: Aga2p, N-terminal, kept
In the case of B1, the binding result is “binds”.

B2: SynAb-A7 scFv displayed on yeast (scFv, V domains shown)
VH: EVQLVQSGAEVKKPGESLKISCKGSGYSFTSYWIGWVRQMPGKGLEWMGIIYPGDSDTRYSPSFQGQVTISADKSISTAYLQWSSLKASDTAVYYCARKKEYYSRFDYWGQGTLVTVSS
VL: not shown
notes: light chain variable domain as printed; glycine-rich peptide linker between VL and VH; heavy chain variable domain as printed; CDR-H3 KKEYYSR; VL-VH orientation; source: yeast surface display, S. cerevisiae RJY100, pCTCON2 vector; not shown: Aga2p, N-terminal, kept
Take B2: the “binding per expression signal, fold of TIMP-3” value is at most 3 fold.

B3: SynAb-A6 scFv displayed on yeast (scFv, V domains shown)
VH: EVQLVQSGAEVKKPGESLKISCKGSGYSFTSYWIGWVRQMPGKGLEWMGIIYPGDSDTRYSPSFQGQVTISADKSISTAYLQWSSLKASDTAVYYCARTDLHVHVYYFDYWGQGTLVTVSS
VL: not shown
notes: light chain variable domain as printed; glycine-rich peptide linker between VL and VH; heavy chain variable domain as printed; CDR-H3 TDLHVHVYY; VL-VH orientation; source: yeast surface display, S. cerevisiae RJY100, pCTCON2 vector; not shown: Aga2p, N-terminal, kept
In the case of B3, the binding result is on record as “binds”.
